Assay results from the Immune Epitope Database (IEDB).
pIC50: −log10 of the molar value.

The sequences below were run against HLA-A*02:01 (assay: IEDB peptide-MHC binding, purified MHC/competitive/radioactivity; ≥ and ≤ were set here for values at or beyond the usual limits of such assays). Settings: source organism: Bordetella pertussis.

Question: TLNASNLTL was tested. Which pIC50 did it give?
Answer: 5.35

Question: With VIDGQKVLA as the sequence, how does the pIC50 read?
Answer: 4.45

The sequences below were run against HLA-B*44:03 in the same assay as above. Settings: source organism: Bordetella pertussis.

Question: With FELGADHAV as the sequence, how does the pIC50 read?
Answer: ≤ 4.11

Question: IETGGARRF was tested. Which pIC50 did it give?
Answer: 4.66

Question: AESSEAMAA was tested. Which pIC50 did it give?
Answer: 5.12

Question: How did the pIC50 turn out when VEVSSPPPV was run?
Answer: 4.54

Question: How did the pIC50 turn out when AEATQLVTA was run?
Answer: 5.66

The sequences below were run against HLA-B*57:01 in the same assay as above. Settings: source organism: Bordetella pertussis.

Question: With VSVKVAKKL as the sequence, how does the pIC50 read?
Answer: 4.43

Question: With DASGQHRLW as the sequence, how does the pIC50 read?
Answer: ≤ 4.15

Question: With KGPKLAMPW as the sequence, how does the pIC50 read?
Answer: 5.31

Question: How did the pIC50 turn out when RGWSIFALY was run?
Answer: 5.98

Each sequence was assayed against HLA-B*35:01 in the same assay as above. Settings: source organism: Bordetella pertussis.

Question: How did the pIC50 turn out when LPTHLYKNF was run?
Answer: 4.98

Question: How did the pIC50 turn out when KAAKSVNLM was run?
Answer: 4.30

Question: How did the pIC50 turn out when AAESTFESY was run?
Answer: 4.35

Question: How did the pIC50 turn out when HAEHEKDVR was run?
Answer: 4.16

Each sequence was assayed against HLA-B*53:01 in the same assay as above. Settings: source organism: Bordetella pertussis.

Question: KPLADIAVI was tested. Which pIC50 did it give?
Answer: 4.80

Question: With DASGQHRLW as the sequence, how does the pIC50 read?
Answer: 4.59

Question: How did the pIC50 turn out when YPALRAALI was run?
Answer: 5.02

Question: PAPTAPPMP was tested. Which pIC50 did it give?
Answer: 4.27

What follows are sequences tested against HLA-B*07:02 in the same assay as above. Settings: source organism: Bordetella pertussis.

Question: With HVRGMLVPV as the sequence, how does the pIC50 read?
Answer: 5.21

Question: With GAPAAVSVL as the sequence, how does the pIC50 read?
Answer: 4.16
